Where two headings read alike, the source gives them in different places.
How the values were obtained:
[1] = biological target: T1, Recombinant Human IL-17A, Sino Biological, 12047-HNAS (human, UniProt Q16552 24-155); experiment: indirect ELISA, human IL-17A coated
T1 construct: range 24-155; Bought recombinant protein; also called huIL-17A
Method: (§1) Human IL-17A was formulated into a 1 μg/ml coating solution with CBS, and added to the ELISA plate at 50 μL/well, and the plate was coated at 2 to 8° C. for 12 hours or longer. The residue coating solution was discarded, 3% milk was added, 200 μL per well, and the plate was blocked at room temperature for 1 hour. Each well was washed with not less than 200 μL of PBST, and the hybridoma supernatant was diluted to 100 μg/ml, and was 10-fold diluted for 10 gradients, and added to the plate at 100 μL/well. […] After incubating for 1 hour at room temperature, each well was added with not less than 200 μL of PBST and washed 4 times, and patted to dryness. TMB development solution was added at 100 μL per well. After reacting for 5 minutes at room temperature, the reaction was quenched by adding 2M H₂SO₄ at 50 μL/well. After the reaction was quenched, the ELISA plate was placed on a microplate reader, and the absorbance OD450 value was read at a wavelength of 450 nm.

[2] = biological target: T2, Recombinant Mouse IL-17A, Sino Biological, PBV10159R-010 (mouse, UniProt Q62386 26-158); experiment: indirect ELISA, mouse IL-17A coated
T2 construct: also called murine IL-17A
T2 sequence (looked up): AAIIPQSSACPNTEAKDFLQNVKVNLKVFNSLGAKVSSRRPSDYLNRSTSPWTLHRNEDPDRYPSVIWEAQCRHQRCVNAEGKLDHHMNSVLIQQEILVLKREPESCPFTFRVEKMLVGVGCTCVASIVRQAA
Method: as §1

[3] = biological target: T1, Recombinant Human IL-17A, Sino …; experiment: indirect ELISA, human IL-17A coated, hybridoma supernatant
Method: as §1

[4] = biological target: T1, Recombinant Human IL-17A, Sino …; experiment: cell-based or functional assay
[5] = biological target: T1, Recombinant Human IL-17A, Sino …; experiment: cell-based or functional assay; remark: listed apart in the source
[6] = biological target: T1, Recombinant Human IL-17A, Sino …; experiment: indirect ELISA, human IL-17A coated; remark: listed apart in the source
[7] = biological target: T3, Recombinant rat IL-17A, ABGENT, PBV10154r (rat, UniProt Q61453 18-150, limits assumed); experiment: indirect ELISA, rat IL-17A coated
T3 sequence (looked up): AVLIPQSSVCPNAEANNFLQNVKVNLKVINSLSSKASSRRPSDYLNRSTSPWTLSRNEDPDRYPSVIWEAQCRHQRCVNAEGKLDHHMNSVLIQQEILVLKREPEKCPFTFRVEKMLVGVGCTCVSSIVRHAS

[8] = biological target: T1, Recombinant Human IL-17A, Sino …; experiment: indirect ELISA, human IL-17A coated; remark: listed apart in the source
Method: as §1

[9] = biological target: T2, Recombinant Mouse IL-17A, Sino …; experiment: indirect ELISA, mouse IL-17A coated; remark: listed apart in the source
Method: as §1

[10] = biological target: T1, Recombinant Human IL-17A, Sino …; experiment: indirect ELISA, human IL-17A coated; remark: listed apart in the source
Method: as §1

[11] = biological target: T1, Recombinant Human IL-17A, Sino …; experiment: indirect ELISA, human IL-17A coated; remark: listed apart in the source
Method: as §1

[12] = biological target: T4, Recombinant Rhesus IL-17A, Sino Biological, 90306-KNAB (Rhesus, UniProt F6T3G5 24-155); experiment: indirect ELISA, Rhesus IL-17A coated
T4 construct: also called macaque IL-17A
T4 sequence (F6T3G5 entry or part of it): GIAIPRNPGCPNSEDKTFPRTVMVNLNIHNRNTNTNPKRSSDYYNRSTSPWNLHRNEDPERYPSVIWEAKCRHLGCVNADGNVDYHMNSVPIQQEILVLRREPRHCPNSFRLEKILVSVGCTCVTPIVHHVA

[13] = biological target: T5, Recombinant human IL-17B, R&D, 8129-IL (human, UniProt Q9UHF5 21-180); experiment: indirect ELISA, IL-17B coated at 1 µg/ml
T5 sequence (looked up): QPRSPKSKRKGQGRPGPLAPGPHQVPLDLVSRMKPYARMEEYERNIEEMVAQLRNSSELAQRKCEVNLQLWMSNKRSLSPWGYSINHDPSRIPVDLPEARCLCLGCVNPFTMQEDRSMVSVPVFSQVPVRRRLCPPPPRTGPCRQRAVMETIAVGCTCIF

[14] = biological target: T6, Recombinant human IL-17D, Sino Biological, 10076-H08S (human, UniProt Q8TAD2 16-202); experiment: indirect ELISA, IL-17D coated at 1 µg/ml
T6 sequence (looked up): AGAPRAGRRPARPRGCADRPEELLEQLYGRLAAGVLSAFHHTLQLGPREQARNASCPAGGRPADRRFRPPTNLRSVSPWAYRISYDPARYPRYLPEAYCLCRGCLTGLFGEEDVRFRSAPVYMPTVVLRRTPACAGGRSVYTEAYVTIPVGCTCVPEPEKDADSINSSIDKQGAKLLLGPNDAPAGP
Method: as §1

[15] = biological target: T7, Recombinant human IL-17E, ABGENT, PBV10154r (human, UniProt Q9H293 33-177, limits assumed); experiment: indirect ELISA, IL-17E coated at 1 µg/ml
T7 construct: The catalogue number printed is the same as that printed for rat IL-17A; also called IL-25
T7 sequence (looked up): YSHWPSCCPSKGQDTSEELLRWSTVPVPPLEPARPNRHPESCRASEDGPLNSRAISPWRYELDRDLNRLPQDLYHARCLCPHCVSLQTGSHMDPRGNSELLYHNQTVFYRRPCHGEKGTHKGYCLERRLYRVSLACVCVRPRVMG
Method: as §1

[16] = biological target: T1, Recombinant Human IL-17A, Sino …; experiment: SPR (Biacore), antibody captured by anti-human antibody on the chip, IL-17A as analyte, 1:1 model
Method: In this example, the antigen-antibody binding kinetics and affinity were determined using BIACORE method.
Human Antibody Capture Antiboy was amino-coupled immobilized on the Sereis S Sensor Chip CMS chip using Amine Coupling Kit, anti-Human Capture-CMS chip. The chip was placed at room temperature for 20-30 mins, and loaded into the instrument. The antigen was diluted with equilibration buffer at an initial dilution of lOnM, and was diluted for 5 concentration gradients. 2 zero concentrations (i.e., equilibration buffer) and one repeat concentration (generally the lowest concentration repeat) were set. The antibody sample was diluted to the experimental working concentration with an equilibration buffer and sealed at 2-8° C.

T1 sequence (Q16552 24-155 limits assumed, form in doubt): as the sequence (F6T3G5 entry or part of it) above, with A3T, T17N, V77I, R104P counted along it

B1: Chimeric antibody (mouse 7D6/5H8 VH and VL on human IgG1 and k constant regions) (antibody, V domains shown)
VH: QIQLVQSGPELKKPGETVKISCKASEYIFTNYGMNWVKEAPGKAFKWMGWIDTNTGEPTYAEDFKGRFAFSLDSSATSAFLQISNLKDDDTGTYFCANYGWGYFDYWGQGTTLTVSS
VL: DVVMTQTPLSLPVSLRDQASISCISSQSLVHSNGYTYLHWYLQKPGQSPKLLIYKVSNRFSGVPDRFSGSGSGTDFTLKISRVEAADLGVYFCSQSTHVPYTFGGGTKLEIK
notes: Human IgG1 heavy chain constant region and human kappa light chain constant region; Expressed in CHO-K1 cells
With B1 the EC50 [1] was 0.0386 µg/mL and the EC50 [2] was 0.0392 µg/mL.

B2: mouse anti-human IL-17A monoclonal antibody of hybridoma 7D6/5H8 (antibody, V domains shown)
VH: QIQLVQSGPELKKPGETVKISCKASEYIFTNYGMNWVKEAPGKAFKWMGWIDTNTGEPTYAEDFKGRFAFSLDSSATSAFLQISNLKDDDTGTYFCANYGWGYFDYWGQGTTLTVSS
VL: DVVMTQTPLSLPVSLRDQASISCISSQSLVHSNGYTYLHWYLQKPGQSPKLLIYKVSNRFSGVPDRFSGSGSGTDFTLKISRVEAADLGVYFCSQSTHVPYTFGGGTKLEIK
notes: Mouse antibody from hybridoma supernatant; also called original murine antibody; IL17-HC1 / IL17-LC1
B2 showed an EC50 [3] of 0.194 µg/mL.

B3: humanized anti-IL-17A antibody HB0017 (antibody, human IgG1, V domains shown)
VH: QVQLVQSGSELKKPGASVKVSCKASEYIFTNYGMNWVKQAPGQGFEWMGWIDTNTGEPTYAQGFTGRFVFSLDTSVSTAYLQISSLKAEDTATYYCANYGWGYFDYWGQGTTVTVSS
VL: DVVMTQTPPSLPVNPGEPASISCRSSQSLVHSNGYTYLHWYLQKPGQSPQLLIYKVSNHLSGVPDRFSGSGSGTDFTLKISWVEAEDVGVYFCSQSTHVPYTFGGGTKLEIK
notes: also called HB0017 antibody; HBH17 antibody
B3 was tested, and the “biological activity (IL-6 release by HT1080 cells) against the positive control antibody” value [4] was roughly 6 fold, the “IC50 of IL-6 release by HT1080 cells stimulated with IL-17A and TNFα” value [5] was 0.09 µg/mL and the “improvement of EC50 against the chimeric antibody” value [6] was roughly 150%. The “improvement of EC50 against the original murine antibody” value [6] was roughly 11.6 times, the EC50 [7] was 0.24 µg/mL and the EC50 [8] was 0.0154 µg/mL. For the same binder, the EC50 [9] was 0.075 µg/mL, the EC50 [10] was 0.0154 µg/mL and the EC50 [11] was 0.0154 µg/mL. The EC50 [12] was 0.088 µg/mL, the binding result [13] was “no binding” and the binding result [14] was “no binding”. The binding result [15] was “no binding” and the Kd [16] was 19.8 pM.
